Source: patent US20220402990

Experiments:
[1] = system: Activatable cytokine construct IFN-α2b-1204DNIdl-hIgG4
[2] = system: Activatable cytokine construct ProC440 (N IFNα2b 0 1204DNIdL 0AA Fc)
[3] = system: Activatable cytokine construct IFN-α-2b 1490DNI-hIgG4
[4] = system: IFN-α2b-1204DNIdl-hIgG4 with five amino acid residues added to the linker

recombinant human urokinase-type plasminogen activator (uPA)
protease cleavage, gel electrophoresis [1]: The results suggest that the proteases were effective at cleaving the cleavable moieties in the activatable cytokine constructs | protease cleavage, mass spectrometry [2]: Cleavage with uPa at the expected site in the CM was confirmed by Mass spectrometry analysis | protease cleavage, gel electrophoresis [3]: The results suggest that the proteases were effective at cleaving the cleavable moieties in the activatable cytokine constructs | protease cleavage, gel electrophoresis [4]: The results suggest that the proteases were effective at cleaving the cleavable moieties in the activatable cytokine constructs
